Values of other authors as cited in paper PMC9574052.

Target: oxytocin receptor (Homo sapiens) (UniProt P30559)
Chain of UniProt P30559 (P30559 whole entry): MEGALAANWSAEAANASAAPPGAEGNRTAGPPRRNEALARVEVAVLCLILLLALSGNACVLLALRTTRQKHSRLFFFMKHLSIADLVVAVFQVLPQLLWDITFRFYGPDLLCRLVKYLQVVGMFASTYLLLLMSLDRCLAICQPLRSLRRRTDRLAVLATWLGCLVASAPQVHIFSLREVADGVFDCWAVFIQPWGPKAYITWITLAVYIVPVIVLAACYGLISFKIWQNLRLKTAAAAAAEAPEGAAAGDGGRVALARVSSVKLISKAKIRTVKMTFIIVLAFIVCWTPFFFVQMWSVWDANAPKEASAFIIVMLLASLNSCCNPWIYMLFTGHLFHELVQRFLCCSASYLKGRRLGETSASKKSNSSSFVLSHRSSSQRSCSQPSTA

Chain of oxytocin (P01178 whole entry, looked up): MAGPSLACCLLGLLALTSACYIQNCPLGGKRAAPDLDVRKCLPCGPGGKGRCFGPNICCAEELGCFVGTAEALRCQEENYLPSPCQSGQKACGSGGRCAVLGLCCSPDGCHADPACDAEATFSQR

oxytocin (from UniProt P01178)
Ki: 790 pM
